According to patent publication US6730503B1 (Roche Vitamins Inc., priority 1996, dated 2004):

Key:
[1] = Substrate specificity of purified enzymes, PMS-DCIP spectrophotometric assay; assay type: biochemical; conditions: A′ corrected 1.5-fold (purity about 65%)
Method: The enzymatic activity of the AADHs herein can be determined by methods known in the art, such as by photometric analysis using a spectrophotometer. In accordance with the present invention, one unit of enzyme activity was defined as the amount of enzyme which catalyzed the reduction of 1 μmole of DCIP per minute. The extinction coefficient of DCIP at pH 8.0 was taken as 15 mM^−1. In a preferred standard assay for determining the enzyme activity of the AADHs herein, a first cuvette includes a standard reaction mixture (1.0 ml) containing 0.1 mM DCIP, 1 mM PMS, 2 to 125 mM substrate, 50 mM Tris-malate-NaOH buffer (pH 8.0), and 10 μl of the enzyme solution. A second cuvette, i.e., a reference cuvette, contains all the above components except the substrate. The reference cuvette is used to standardize the background absorbance resulting from a substrate-independent (endogenous) reaction. Preferably, a double beam spectrophotometer is used to determine the activity of the enzyme in the presence of a substrate with respect to a standard reaction mixture in the absence of the substrate.
Enzyme activities of each clone (cell free extract, soluble fraction and membrane fraction) were measured by photometric analysis. The cells of each clone were inoculated in 5 ml of MB medium in a test tube and cultivated at 30° C. for 24 hours. The resulting broth was transferred into 200 ml of fresh MB medium in 500 ml flask and the flask was shaken on the rotary flask shaker at 30° C. for 24 hours. The cells were collected by centrifugation at 6,000×g for 10 minutes and washed with 40 ml of cold buffer consisting of 50 mM Tris-HCl, pH 7.5, 5 mM MgCl2 and 0.5 mM phenylmethylsulfonyl fluoride and suspended with the same buffer to prepare cell suspension of 1 g wet cells per 5 ml. The cell suspension was subjected twice to a French press cell disruptor (1,500 kg/cm^2) and the resulting homogenate was centrifuged at 6,000×g for 10 minutes to remove cell debris. Thus obtained cell free extract (CFE) was centrifuged at 100,000×g for 60 minutes. The resulting supernatant and pellet were collected as the cytosol fraction and the membrane fraction, respectively and subjected to PMS-DCIP assay as follows. The enzyme reaction mixture (1.0 ml) contained 100 μM DCIP, 1 mM PMS, 50 mM Tris malate-NaOH buffer, pH 8.0, a substrate and the enzyme (10 μl). Substrate-dependent decreasing rate of absorbance of DCIP at 600 nm was measured at 25° C. by using a Kontron spectrophotometer UVIKON 810. […] In the A-group, there were three types, A, A′ and A″ each of which was distinguished from each other by their physical map of the DNA carried on each plasmid. B- or C-group each consisted of only one type of protein derived from one region of the chromosomal DNA.

[2] = Thermal stability, 5 minutes, residual activity by PMS-DCIP assay; assay type: physicochemical
Method: Table 4 indicates the results of thermal-stabilities of the enzymes. The enzyme (about 0.05 mg/ml) in 25 mM HEPES buffer, pH 7.5, containing 5% sucrose, 0.2 M NaCl, and 5 mM CaCl2 was incubated at temperature indicated in the table (4-60° C.) for 5 minutes, cooled in ice bath and assayed by PMS-DCIP spectrophotometric method. Remaining activity was expressed as relative activity against that obtained by 4° C. incubation.

[3] = 2KGA production by purified recombinant AADH in a reaction mixture; assay type: biochemical; conditions: 1.7 mg/ml enzyme, 4% L-sorbose, 30° C., 20 hours; TLC assay
From the text: As a result, about 2 g/l 2KGA (TLC assay) was produced. […]

[4] = Product assay with Enzyme sA2 and Enzyme A; assay type: biochemical

B1: Enzyme A: recombinant AADH of G. oxydans DSM No. 4025, amino acid sequence SEQ ID NO 5, plasmid p24D4/pSSA102R (protein)
chain: MKPTSLLWASAGALALLAAPAFAQVTPVTDELLANPPAGEWISYGQNQENYRHSPLTQITTENVGQLQLVWARGMQPGKVQVTPLIHDGVMYLANPGDVIQAIDAKTGDLIWEHRRQLPNIATLNSFGEPTRGMALYGTNVYFVSWDNHLVALDTATGQVTFDVDRGQGEDMVSNSSGPIVANGVIVAGSTCQYSPFGCFVSGHDSATGEELWRNYFIPRAGEEGDETWGNDYEARWMTGAWGQITYDPVTNLVHYGSTAVGPASETQRGTPGGTLYGTNTRFAVRPDTGEIVWRHQTLPRDNWDQECTFEMMVTNVDVQPSTEMEGLQSINPNAATGERRVLTGVPCKTGTMWQFDAETGEFLWARDTNYQNMIESIDENGIVTVNEDAILKELDVEYDVCPTFLGGRDWPSAALNPDSGIYFIPLNNVCYDMMAVDQEFTSMDVYNTSNVTKLPPGKDMIGRIDAIDISTGRTLWSVERAAANYSPVLSTGGGVLFNGGTDRYFRALSQETGETLWQTRLATVASGQAISYEVDGMQYVAIAGGGVSYGSGLNSALAGERVDSTAIGNAVYVFALPQ
modifications: Gluconobacter oxydans; SIGNAL (1)..(23)
In the case of B1, the Substrate specificity ([1]; 2 mM L-Sorbosone) is reported as 23.15 units/mg of purified protein, the Substrate specificity ([1]; 50 mM D-Glucose) is reported as 2.4 units/mg of purified protein and the Substrate specificity ([1]; 50 mM D-Mannitol) is reported as 7.1 units/mg of purified protein. The Substrate specificity ([1]; 50 mM Isopropanol) was 76.8 units/mg of purified protein, the Substrate specificity ([1]; 50 mM n-Propanol) was 139.6 units/mg of purified protein and the Substrate specificity ([1]; 125 mM D-Fructose) was 30.7 units/mg of purified protein. For the same molecule, the Substrate specificity ([1]; 125 mM D-Sorbitol) was 14.0 units/mg of purified protein, the Substrate specificity ([1]; 125 mM L-Sorbose) was 47.4 units/mg of purified protein and the “Relative activity (thermal stability)” value ([2]; 4° C. for 5 minutes (reference)) was 100.0%. The “Relative activity (thermal stability)” value ([2]; 20° C. for 5 minutes, relative to 4° C. incubation) was 91.5%, the “Relative activity (thermal stability)” value ([2]; 30° C. for 5 minutes, relative to 4° C. incubation) was 78.0% and the Residual activity ([2]; 40° C. for 5 min) was 20%. The “Relative activity (thermal stability)” value ([2]; 40° C. for 5 minutes, relative to 4° C. incubation) was 19.9%, the “Relative activity (thermal stability)” value ([2]; 50° C. for 5 minutes, relative to 4° C. incubation) was 4.1% and the “Relative activity (thermal stability)” value ([2]; 60° C. for 5 minutes, relative to 4° C. incubation) was 2.9%. For the same molecule, the 2KGA produced [3] was “about 2 g/l”, the “Products from D-sorbitol in product assay” value [4] was “D-glucose only” and the “Products from L-sorbose in product assay” value [4] was 2KGA.
